Data: PMC10164562

Columns and labels:
[1] = target: BrxL(E280Q) (Acinetobacter sp. 394); assay: cryo-EM structure; BrxL(E280Q), high molecular weight SEC fractions with co-purified host DNA, no added ATP; C1 refinement
[2] = target: wild-type BrxL (Acinetobacter sp. 394); assay: cryo-EM structure; wild-type BrxL, high molecular weight SEC fractions, ~0.8 mg/ml, no added ATP, no bound DNA; C7 symmetry

stoichiometry N [1] | stoichiometry N [2] | Substance
12 |  | BrxL(E280Q) (natural protein)
 | 14 | wild-type BrxL (natural protein)
